Source: the supplement of paper PMC10201428
± gives the standard deviation of the averaged measurements.

Columns and labels:
[1] = system: VchCAST RNA-guided transposition machinery (E. coli BL21(DE3) host, lacZ target); assay: relative integration efficiency (T-LR orientation) vs wild-type transposon end (log2 (normalized fold change)); transposon end mutated: left end; higher = more efficient transposition
Procedure: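 Pooled, barcoded VchCAST (Tn6677) mini-transposon donor libraries; each variable transposon-end sequence sits in a fixed pDonor mini-transposon context (10-bp barcode and cargo not included). Left- or right-end libraries were co-transformed with pEffector (TniQ-Cascade, TnsABC, lacZ crRNA, T7, 0.1 mM IPTG) into E. coli BL21(DE3) and grown 18 h at 37 C. T-LR and T-RL junction amplicons were sequenced; output/input barcode fold change was normalised to the mean of four wild-type barcodes and log2-transformed. Two biological replicates; zero-count/undetected variants carry floor values (-10 / -15), censored here. Barcode uncoupling by PCR recombination adds noise.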

[2] = system: VchCAST RNA-guided transposition machinery (E. coli BL21(DE3) host, lacZ target); assay: relative integration efficiency (T-RL orientation) vs wild-type transposon end (log2 (normalized fold change)); transposon end mutated: left end; higher = more efficient transposition
Procedure, shortened: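 Relative integration efficiency is a fold change of output over input barcode abundance, normalised to reference barcodes and log-transformed. Input plasmids and genomic integration junctions were PCR-amplified and Illumina-sequenced from E. coli BL21(DE3) co-transformed with a T7-driven effector plasmid and pUC57 donor pools of 1549 left-end or 1849 right-end transposon variants. Plating was done with 0.1 mM IPTG at 37°C for 18 h, with two biological output replicates and four reference barcodes.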

Sequence | relative integration efficiency (log2) [1] | relative integration efficiency (log2) [2]
AATGTTGTTGATGCAACCATAAAGTGATATTTAATAATTATTTATAATCAGCACAACCATATATTGATATCTCACTTAACCACAAAAACAAAACAACCATAAGTTGATATTTTTGTGAATCGAGTATTTCAGCAAAACTACTGCAGTAAGAA | < -10 | -6.85 ± 0.48
AATGTTGTTGATGCAACCATAAAGTGATATTTAATAACTTCGTATAATGTATCGTATACGAACGGTACAACCATATATTGATATCTCACAAAACAACCATAAGTTGATATTTTTGTGAATCGAGTATTTCAGCAAAACTACTGCAGTAAGAA | -4.18 ± 0.64 | -3.32 ± 0.82
AATGTTGTTGATGCAACCATAAAGTGATATTTACAACCATATATTGATATCTCACAACAACCATAAGTTGATATTTTTGTGAATCGAGTATTTCAGCAAAACTACTGCAGTAAGAAAGTTACTTCGTGGTATGGGAGGATCAAGGAGCCAAT | 2.75 ± 0.92 | -2.68 ± 0.7
AATGTTGTTGATGCAACCATAAAGTGATATTTAATAATTATTTATAATCAGCAACTTAACCACAAAACAACCATATATTGATATCTCACAACAACCATAAGTTGATATTTTTGTGAATCGAGTATTTCAGCAAAACTACTGCAGTAAGAAAG | -1.51 ± 0.32 | -3.43 ± 0.95
AATGTTGTTGATGCAACCATATATTGATATCTCATAATTATTTATAATCAGCAACTTAACCACAAAACAACCATATATTGATATCTCACAAAAGTTGGTATTCAACTATAAAATGTGAATCGAGTATTTCAGCAAAACTACTGCAGTAAGAA | -2.34 ± 0.9 | -3.5 ± 1.4
AATGTTGTTGATGCAACCATAAAGTGATCGGGCATAATTATTTATAATCAGCAACTTAACCACAAAACAACCATATATTGATCGAGAACAAAACAACCATAAGTTGATCGGGGTGTGAATCGAGTATTTCAGCAAAACTACTGCAGTAAGAA | -3.33 ± 1.4 | -3.68 ± 1.3
AATGTTGTTGATGCAACCATAAAGTGATATTTAATAATTATTTATAATCAGCAACTTAACCACAAAACAACCATATATTGATATAGACACCCCACCAACGCCTGGTCGCGGGGGTGTCCGATCTGATTTCAGCAAAACTACTGCAGTAAGAA | -1.07 ± 1.7 | -2.48 ± 1.1
AATGTTGTTGATGCAACCATAAAGTGATATTTAATAATTATTTATAATCAGCAACTTAACCACAAAACAACCATATAGGTCGCGAGACACCCCACCAACGCCTGGTCGCGGGGGTGTCCGATCTGATTTCAGCAAAACTACTGCAGTAAGAA | -3.44 ± 0.57 | -5.2 ± 1.6
AATGTTGTTGATGCAACCATAAAGTGATATTTAATAATTATTTATAATCAGCAACTTAACCACAAAACAACCATATATTGATATCTACACCCCACCAACGCCTGGTCGCGGGGGTGTCCGATCTGATTTCAGCAAAACTACTGCAGTAAGAA | -1.16 ± 1.5 | -2.46 ± 1
AATGTTGTTGATGCAACCATAAAGTGATATTTACGCCGGCGGGCGCCGACTACCAGGCCAACACCCCACCAACGCGCGGTCGCGAGACACCCCACCAACGCCTGGTCGCGGGGGTGTCCGATCTGATTTCAGCAAAACTACTGCAGTAAGAA | -6.15 ± 3.6 | -6.9 ± 0.36
AATGTTGTTGATGCAACCATAAAGTGATATTTAATAATTATTTATAATACTACCAGGCCAACACCCCACCAACGCGCGGTCGCGAGACACCCCACCAACGCCTGGTCGCGGGGGTGTCCGATCTGATTTCAGCAAAACTACTGCAGTAAGAA | -3.51 ± 1.3 | -6.5 ± 1.2
AATGTTGTTGATGCAACCATAAAGTGATATTTAATAATTATTTCGCCGACTACCAGGCCAACACCCCACCAACGCGCGGTCGCGAGACACCCCACCAACGCCTGGTCGCGGGGGTGTCCGATCTGATTTCAGCAAAACTACTGCAGTAAGAA | -6.08 ± 3.8 | -7.27 ± 1.6
AATGTTGTTGATGCAACCATATATTGATATCTCATAATTATTTATAATCAGCAACTTAACCACAAAACACCCATAAATTGATATTGCACAAAAGTTGGTATTCAACTATAAAATGTGAATCGAGTATTTCAGCAAAACTACTGCAGTAAGAA | -2.2 ± 1.6 | -4.07 ± 1.2
AATGTTGTTGATGCAACCATAAAGTGATATTTAATAATTATTTATAATCAGCAACTTAACCACAAAACAACCATATATTGATATCTCACAACCACCAACGCCTGGTCGCGGGGGTGTCCGATCTGATTTCAGCAAAACTACTGCAGTAAGAA | -0.813 ± 1.4 | -2.63 ± 0.74
AATGTTGTTGATGCAACCATAAAGTGATATTTAATAACTTCGTATAGTATACATTATACGAAGTTATCAACCATATATTGATATCTCACAAAACAACCATAAGTTGATATTTTTGTGAATCGAGTATTTCAGCAAAACTACTGCAGTAAGAA | -4.118 ± 0.013 | -2.92 ± 1
AATGTTGTTGATGCAACCATAAAGTGATATTTACAACCATATATTGATATCTCATAATTATTTATAATCAGCAACTTAACCACAAAAACAAAACAACCATAAGTTGATATTTTTGTGAATCGAGTATTTCAGCAAAACTACTGCAGTAAGAA | -0.75 ± 1.4 | -1.85 ± 0.76
AATGTTGTTGATGCAACCATAAAGTGATATTTAATAATTATTTATAATCAGCAACTTAACCACAAAACAACCATATATTGATATCTCACAAAACAACCATAATGGTCGCGGGGGTGTCCGATCTGATTTCAGCAAAACTACTGCAGTAAGAA | -1.31 ± 0.87 | -1.93 ± 0.81
AATGTTGTTGATGCAACCATAAAATGATAATTAATAATTATTTATAATCAGCAACTTAACCACAAAACAACCATATATTGATATCTCACAAAAGTTGGTATTCAACTATAAAATGTGAATCGAGTATTTCAGCAAAACTACTGCAGTAAGAA | -0.862 ± 0.91 | -2.59 ± 1.1
AATGTTGTTGATGCAACCATAAAGTGATATTTAATAATTATTTATAATCAGCAACTTAACCACAAAACAAAACGCGCGGTCGCGAGACACCCCACCAACGCCTGGTCGCGGGGGTGTCCGATCTGATTTCAGCAAAACTACTGCAGTAAGAA | -3.29 ± 0.78 | -6.07 ± 0.85
AATGTTGTTGCAACCATAAAGTGATATTTAATAATTATTTATAATCAGCAACTTAACCACAAAACAACCATATATTGATATCTCACAAAACAACCATAAGTTGATATTTTTGTGAATCGAGTATTTCAGCAAAACTACTGCAGTAAGAAAGT | -1.44 ± 0.11 | -0.203 ± 0.26
AATGTTGTTGATGCAACCATAAAGTGATATTTAATAATCAACCATATATTGATATCTCTATTTATAATCAGCAACTTAACCACAAAAACAAAACAACCATAAGTTGATATTTTTGTGAATCGAGTATTTCAGCAAAACTACTGCAGTAAGAA | -0.761 ± 1 | -2.9 ± 1.1
AATGTTGTTGATGCAACACGCCCTGTCGCGGGCCGCCGGCGGGCGCCGACTACCAGGCCAACACCCCACCAACGCGCGGTCGCGAGACACCCCACCAACGCCTGGTCGCGGGGGTGTCCGATCTGATTTCAGCAAAACTACTGCAGTAAGAA | < -10 | < -10
AATGTTGTTGATGCAACCATAAAGTGATATTTAATAATTATTTATAATCAGCAACTTAACCACAAAACAACCATATATTGATATCTCACAAAACCCAACGCCTGGTCGCGGGGGTGTCCGATCTGATTTCAGCAAAACTACTGCAGTAAGAA | -0.934 ± 0.6 | -2.31 ± 0.93
AATGTTGTTGATGCAACCATATATTGATATCTCATAATTATTTATAATCAGCAACTTAACCACAAAACAACCATAAAGTGATATTTAACAAAAGTTGGTATTCAACTATAAAATGTGAATCGAGTATTTCAGCAAAACTACTGCAGTAAGAA | -1.75 ± 1.5 | -3.25 ± 1.2
